The source of these data is US6740496B1, “Determination of biologically active forms of proteolytic enzymes” (Synapse B.V., priority 1999, dated 2004).

Common to all, as to assay type: biochemical
Data set [1] has as its target T1, human thrombin (Homo sapiens, UniProt P00734).
T1 construct: The formation of thrombin in clotting blood or plasma arises from prothrombin by an enzymatic controlled reaction
The data set can be described thus: Amidolytic activity of human thrombin towards OA-S2288 (pNA release, OD 405 nm). To be noted: Michaelis-Menten fit. The procedure: (§1) The amidolytic activity of human thrombin and human α2M-IIa towards OA-S2288 was measured. The reaction mixtures contained 22 μM OA-S2288, 50 nM thrombin or α2M-IIa and 175 mM NaCl, 50 mM Tris-HCl, 2 mg/ml ovalbumin (pH 7.9).
(§2) In FIG. 2 the amount of free p-nitroanilide (pNA) formed, expressed as milli optical density at 405 nm, is plotted against the time. The reaction temperature was 37° C. The grey curves are the measured data, whereas the black line is obtained by fitting, assuming that product formation occurs according to Michaelis-Menten kinetics.
(§3) Product formation in time can be described as: E.kcat. St/(Km+St), in which St is the substrate concentration in time (i.e. the substrate concentration originally present (S0) minus the formed product or split substrate, and E is the enzyme that splits the substrate, either thrombin or α2M-IIa.

Data set [2] deals with T2, human α2M-IIa (Homo sapiens, UniProt P00734).
T2 construct: The formation of thrombin in clotting blood or plasma arises from prothrombin by an enzymatic controlled reaction
Nature of the data set: Amidolytic activity of human α2M-IIa towards OA-S2288 (pNA release, OD 405 nm). The method, then: as §1, §2, §3

In data set [3] the target is T2, human α2M-IIa. The data set can be described thus: Hydrolysis of OA-AR-AMC by thrombin inactivated by α2M (AMC fluorescence). The method, then:
(§4) The assay was carried out at 25° C. in 96 well Microfluor W “U” bottomed micro titre plates (Dynex, London, UK) in 10 mM HEPES, 5 mM CaCl2, 0.02% sodium azide, pH 8.0). In case of -∘- the vessel contained 5.5 μM OA-AR-AMC (Ala-Arg-AMC coupled to ovalbumin) and 85 nM human thrombin and in case of -∇-5.5 μM OA-AR-AMC and 65 μM human α2M-IIa. The black symbols (-●- and -▾-) were obtained by fitting assuming that the substrate is hydrolysed by thrombin according to Michaelis-Menten kinetics. […] For hydrolysis by α2M-IIa the already derived S0 and Km were found and kcat=0.008 s^−1.

Data set [4] deals with T1, human thrombin. The data set can be described thus: Hydrolysis of OA-AR-AMC by free thrombin (AMC fluorescence). To be noted: 5.5 μM OA-AR-AMC, 85 nM human thrombin, 25° C., pH 8.0, Michaelis-Menten fit. The procedure: as §4

As usually defined, the Km is the concentration of substrate that gives half-maximal velocity. By kcat is commonly meant the maximal rate divided by the concentration of active sites.

As to “ovalbumin coupled to H-D-isoleucyl-L-prolyl-L-arginine-p-nitroanilide.2HCl [OA-S2288]”, the Km with human thrombin [1] (22 μM OA-S2288, 50 nM thrombin, pH 7.9, 37° C.) is 1470 nM. Also, the catalytic constant (kcat) in the data set with human thrombin [1] (E is thrombin, 22 μM OA-S2288, 50 nM enzyme, 37° C.) turned out to be 0.31 s⁻¹; in the data set with human α2M-IIa [2] (E is α2M-IIa, 22 μM OA-S2288, 50 nM enzyme, 37° C., Michaelis-Menten fit) it was 0.002 s⁻¹. Moreover, the “hydrolysis by α2M-IIa (in words)” value at human α2M-IIa [2] (ovalbumin coupled to S2288) is reported as “loses its ability to be hydrolysed by α2M-IIa, but not by thrombin”.
Take “ovalbumin coupled to H-alanyl-L-arginine-7-amido-4-methyl-coumarin [OA-AR-AMC]”: the turnover number (kcat) was 0.008 s⁻¹ with human α2M-IIa [3] (5.5 μM OA-AR-AMC, 65 μM human α2M-IIa, 25° C., pH 8.0, Michaelis-Menten fit) and 3.3 s⁻¹ in the data set with human thrombin [4]. Also, the Michaelis constant (Km) stood at 1200 nM with human α2M-IIa [3] (hydrolysis by α2M-IIa, the already derived S0 and Km); 1200 nM with human thrombin [4]. For the same substance, the “hydrolysis by thrombin entrapped in α2M (in words)” value on human α2M-IIa [3] (ovalbumin coupled to Ala-Arg-AMC) is listed as “will not be split anymore by thrombin entrapped in the cavity of α2M”.
